What all share (assay): purified protein
Substrate in series [1]: O=[N+]([O-])c1ccc(O[C@@H]2O[C@H](CO)[C@@H](O)[C@H](O)[C@H]2O)cc1
To be noted: 1-50 mM substrate.

Substrate in series [2]: O=[N+]([O-])c1ccc(O[C@@H]2OC[C@@H](O)[C@H](O)[C@H]2O)cc1
It is filed as biochemical, bacterium enrichment culture. As to conditions: 1-50 mM substrate.

Substrate in series [3]: O=[N+]([O-])c1ccc(O[C@@H]2O[C@H](CO)[C@@H](O[C@@H]3O[C@H](CO)[C@@H](O)[C@H](O)[C@H]3O)[C@H](O)[C@H]2O)cc1
The format is biochemical, bacterium enrichment culture. As to conditions: optimal conditions of the enzyme (optimum pH 6.0, 65°C), 1-50 mM substrate.

Substrate in series [4]: O=[N+]([O-])c1ccc(O[C@@H]2O[C@@H](CO)[C@H](O)[C@H]2O)cc1
The format is biochemical, bacterium enrichment culture. To be noted: optimal conditions of the enzyme (optimum pH 4.5, 60°C), 1-50 mM substrate.

[5] abbreviates: optimal conditions of the enzyme (optimum pH 6.0, 65°C), pH 6.0, 65.0 °C.
[6] abbreviates: optimal conditions of the enzyme (optimum pH 6.0, 65°C).
The mark [7] stands for this setting: optimal conditions of the enzyme (optimum pH 4.5, 60°C), pH 4.5, 60.0 °C.
Setting [8] is: optimal conditions of the enzyme (optimum pH 4.5, 60°C).

B1: Bgl8520 (bacterium enrichment culture) (protein)
chain: MNKHNKGGLLMKFPENFVWGAAAASYQIEGAAYEDGKGLSVWDIFTRQKGAIENGDNGDIACNHYHRYKEDVQLMKELGLQAYRLSLSWPRILANGTGKVNQKGLDFYDKLIDELLENGIEPYITLFHWDYPYELYKKGGWLNPDSPDWFAEYTEVVVQKLSDRVKNWITINEPQVFVNLGHKDGVHAPGLKLGMEDLLQISHNVLLAHGKGARVIRETSVQDCRIGLAPSDSPVFPATKSEENIQAARRASFSVEDKGLWAINWWMDPVILGRYPEEGLKIFEEYLPEIKTDDFKIISEPIDFFGVNIYQGVCVKLDDKGQAVPAERKVGYARNAYYWPITPEALYWGPRFYYERYKKPVIITENGMSNVDWVAVDGKVHDPQRIDFTNRYLRELQKAGEDGVDIQGYFHWSLMDNFEWAQGYLERFGLIYVDFETGERIIKDSAYWYKKVIETKGEALYA
notes: no signal peptide; pET-28a(+) in E. coli BL21 (DE3), Ni-NTA purified
Consider B1, for which, in series [1] (setting [5]), the Km stood at 0.9 mM, the kcat came to 124 s⁻¹ and the kcat/Km came to 140000 M⁻¹ s⁻¹. In series [2] (setting [6]), the Km worked out at 0.7 mM, the kcat was determined as 0.3 s⁻¹ and the kcat/Km stood at 430 M⁻¹ s⁻¹. In series [3], the Michaelis-Menten constant (Km) was found to be 2.7 mM, the kcat turned out to be 8.2 s⁻¹ and the kcat/Km was found to be 3000 M⁻¹ s⁻¹.

B2: Xyl522 (bacterium enrichment culture) (protein)
chain: MVYKMLFQRSDLPMEERIKDLISRLTLEEKVSQLLYDSAAIPHLGIPEYNWWNECLHGVARAGTATVFPQAIGMAASFNAPLLQQVAEVIATEARAKHHEAARHGDRGIYKGLTFWTPNINIFRDPRWGRGQETYGEDPYLTAQLGIAFVKGLQGDHPKYLKAAACAKHFAVHSGPESLRHSFDARCSQKDLYETYLPAFRALVTEAKVESVMGAYNRTNGEPCCASPTLLQKILREDWGFEGHVVSDCGAIHDIHAHHKVTGSPEESAALAVKNGCDLNCGRVYPALVEAVAQGLISEEEIDRALARLLRTKFKLGLFDPEEEVPYAQIPYEVVACDEHRSLAREMARQSMVLLKNENNLLPLSKELKTVAVIGPNADSRKVLLGNYFGTSSQLVTALEGIRRKLEPNCRVLYAEGCDLTTTRPGYWGNSPREGFAEALAVAERADAVIMCMGVSPDLEGEEGAAANSDGGGDRLTLELPGMQNELIKEVAALGKPLVLVLFSGSPLAVTWAQENVPAIIQAWYPGEEGGNALADIIFGDYNPAGRLPITFVKSLDQLPPFTDYSMEGRTYRYLKEEPLYPFGYGLSYTSFTYSNLQAPAELNIGEELVVQVDVENTGARAGDEVVQLYIRHRDASAAVPHHSLQGFARIRLEPGEKRTVTFRLAPRQLAVFDEEGRCLVEPGAVELLAGGSQPDARSEELTGQKPLLGQVLLVGETLELPR
notes: as for B1
Consider B2, for which, in series [1] (setting [7]), the Km is on record as 15.7 mM, the kcat is 1.4 s⁻¹ and the kcat/Km amounted to 89.2 M⁻¹ s⁻¹. Moreover, in series [2] (setting [8]), the Km amounted to 8.8 mM, the kcat is 14.3 s⁻¹ and the catalytic efficiency (kcat/Km) worked out at 1600 M⁻¹ s⁻¹. Besides, in series [4], the Km came to 10.0 mM, the kcat is 3.2 s⁻¹ and the kcat/Km was found to be 320 M⁻¹ s⁻¹.

The values are drawn from publication PMC4441150, “Synergistic function of four novel thermostable glycoside hydrolases from a long-term enriched thermophilic methanogenic digester” (Frontiers in Microbiology, 2015).
